Drawing on the FLAb antibody collection (doi:10.7554/elife.23156), this text covers Kd and yeast surface expression for 58 variants.

B1: scFv; the commonest letter at each place (parent)
chain 1: EVKLDETGGGLVQPGRPMKLSCVASGFTFSDYWMNWVRQSPEKGLEWVAQIRNKPYNYETYYSDSVKGRFTISRDDSKSSVYLQMNNLRVEDMGIYYCTGSYYGMDYWGQGTSVTVS
chain 2: DVVMTQTPLSLPVSLGDQASISCRSSQSLVHSNGNTYLRWYLQKPGQSPKVLIYKVSNRFSGVPDRFSGSGSGTDFTLKISRVEAEDLGVYFCSQSTHVPWTFGGGTKLEIK

The variants in the data set “fluorescein” derive from B1. Briefly: Kd (Tite-Seq). To be noted: with fluorescein; format: scFv 4-4-20, heavy + light.
Data set [1] covers variants of B1. Briefly: yeast surface expression (ratio to wild type); higher = more expressed. To be noted: format: scFv 4-4-20, heavy + light.

Turning to chain 1 M105G D106Q, the Kd with fluorescein was at least 10 µM. Moreover, the yeast surface expression in data set [1] was 0.514.

Regarding chain 1 M105G D106R, the Kd with fluorescein was at least 10 µM. Moreover, the yeast surface expression in data set [1] is 0.434.

For the variant chain 1 M34H V37P, in the data set with fluorescein, the Kd was at least 10 µM. Further, the yeast surface expression in data set [1] stood at 0.3.

As for chain 1 M34H V37W, in the data set with fluorescein, the dissociation constant (Kd) was at least 10 µM. Besides, in data set [1], the yeast surface expression was 0.602.

In the case of chain 1 M105K G109W, the Kd with fluorescein was at least 10 µM. In data set [1], the yeast surface expression was determined as 0.118.

With chain 1 M34W W36T, the Kd with fluorescein is at least 10 µM. Besides, the yeast surface expression in data set [1] worked out at 0.686.

Consider chain 1 M105T G109V, for which the Kd with fluorescein is at least 10 µM. The yeast surface expression in data set [1] was 0.216.

As to chain 1 M105T G109C, the Kd with fluorescein is at least 10 µM. Moreover, the yeast surface expression in data set [1] is 0.27.

For the variant chain 1 M105T G109L, in the data set with fluorescein, the Kd is at least 10 µM. For the same variant, the yeast surface expression in data set [1] amounted to 0.188.

For the variant chain 1 M34R N35M, the Kd with fluorescein was at least 10 µM. The yeast surface expression in data set [1] is 1.25.

Regarding chain 1 M34A N35I, the dissociation constant Kd with fluorescein was at least 10 µM. For the same variant, in data set [1], the yeast surface expression came out at 0.267.

On to chain 1 M105P D106E, for which the dissociation constant Kd with fluorescein was at least 10 µM. For the same variant, the yeast surface expression in data set [1] is 0.7.

Regarding chain 1 M105F Y107S G109S, the Kd in the data set with fluorescein was at least 10 µM. In addition, in data set [1], the yeast surface expression came to 0.81.

In the case of chain 1 M34L W36V, in the data set with fluorescein, the Kd is at least 10 µM. Moreover, the yeast surface expression in data set [1] was found to be 0.558.

Turning to chain 1 M34E N35H, the Kd with fluorescein came out at 0.195 µM. Further, in data set [1], the yeast surface expression was found to be 0.4.

For chain 1 M105R Y107G, the dissociation constant (Kd) with fluorescein is at least 10 µM. Besides, the yeast surface expression in data set [1] is 0.615.

Regarding chain 1 G109Y, in the data set with fluorescein, the Kd is at least 10 µM. The yeast surface expression in data set [1] was 0.212.

In the case of chain 1 M34A W36M, the dissociation constant (Kd) in the data set with fluorescein is at least 10 µM. Moreover, the yeast surface expression in data set [1] turned out to be 0.249.

Regarding chain 1 M34A W36T, the Kd with fluorescein is at least 10 µM. The yeast surface expression in data set [1] amounted to 0.544.

As to chain 1 M105E Y107C, the Kd with fluorescein was at least 10 µM. Further, the yeast surface expression in data set [1] is 0.847.

Regarding chain 1 M34I N35Y V37Y, in the data set with fluorescein, the Kd is at least 10 µM. In data set [1], the yeast surface expression worked out at 0.45.

Take chain 1 M34E W36M: the Kd with fluorescein is at least 10 µM. Moreover, the yeast surface expression in data set [1] amounted to 0.428.

As to chain 1 M105P W108S, in the data set with fluorescein, the Kd is at least 10 µM. For the same variant, the yeast surface expression in data set [1] came to 0.621.

chain 1 M105G W108N: in the data set with fluorescein, the Kd was at least 10 µM. The yeast surface expression in data set [1] was determined as 0.415.

In the case of chain 1 M105I W108V, the Kd in the data set with fluorescein came out at 0.000724 µM. For the same variant, the yeast surface expression in data set [1] was found to be 0.782.

Consider chain 1 M105I W108G, for which, in the data set with fluorescein, the dissociation constant Kd was at least 10 µM. Moreover, the yeast surface expression in data set [1] turned out to be 0.529.

In the case of chain 1 M105K D106E, in the data set with fluorescein, the Kd came out at 3.2 µM. Also, the yeast surface expression in data set [1] turned out to be 1.01.

chain 1 M105E G109W: the equilibrium dissociation constant (Kd) with fluorescein is at least 10 µM. The yeast surface expression in data set [1] was determined as 0.278.

Consider chain 1 M105V D106E, for which the Kd in the data set with fluorescein is at least 10 µM. The yeast surface expression in data set [1] worked out at 1.02.

In the case of chain 1 M105V D106Y, in the data set with fluorescein, the Kd was at least 10 µM. In data set [1], the yeast surface expression came to 0.489.

Turning to chain 1 M34S N35H, the Kd in the data set with fluorescein is at least 10 µM. The yeast surface expression in data set [1] was determined as 0.536.

As to chain 1 M34T W36L, in the data set with fluorescein, the dissociation constant Kd was at least 10 µM. In addition, in data set [1], the yeast surface expression turned out to be 0.455.

Take chain 1 M34T W36Y: the Kd with fluorescein is at least 10 µM. In data set [1], the yeast surface expression came to 0.649.

Take chain 1 M105N Y107I: the dissociation constant (Kd) with fluorescein is at least 10 µM. The yeast surface expression in data set [1] came out at 1.2.

Regarding chain 1 M34P W36L, the Kd in the data set with fluorescein was at least 10 µM. For the same variant, the yeast surface expression in data set [1] came out at 0.216.

On to chain 1 M34P W36N, for which the equilibrium dissociation constant (Kd) in the data set with fluorescein was at least 10 µM. Also, the yeast surface expression in data set [1] came to 0.506.

Regarding chain 1 M34P N35L, in the data set with fluorescein, the dissociation constant (Kd) is at least 10 µM. Further, the yeast surface expression in data set [1] is 0.779.

For the variant chain 1 M34P N35Q, the dissociation constant (Kd) with fluorescein is at least 10 µM. Besides, in data set [1], the yeast surface expression stood at 0.194.

Consider chain 1 M34P N35D, for which the Kd with fluorescein is at least 10 µM. Moreover, the yeast surface expression in data set [1] worked out at 0.873.

chain 1 M34P N35R: the Kd with fluorescein is at least 10 µM. In data set [1], the yeast surface expression turned out to be 1.16.

For chain 1 M105V W108D, in the data set with fluorescein, the Kd is at least 10 µM. Further, in data set [1], the yeast surface expression was determined as 0.437.

On to chain 1 M105V W108C, for which the Kd with fluorescein is 6.61 µM. Also, the yeast surface expression in data set [1] worked out at 0.461.

chain 1 M105V W108H: in the data set with fluorescein, the Kd is at least 10 µM. In data set [1], the yeast surface expression was found to be 0.493.

For the variant chain 1 M105V W108A, the Kd with fluorescein is at least 10 µM. The yeast surface expression in data set [1] was 0.434.

Take chain 1 M34D N35Q: the Kd with fluorescein is at least 10 µM. Also, the yeast surface expression in data set [1] was determined as 1.78.

Consider chain 1 M105R W108L, for which the Kd in the data set with fluorescein came to 0.000333 µM. Moreover, the yeast surface expression in data set [1] is 0.585.

In the case of chain 1 M105R W108A, the Kd with fluorescein was found to be 7.33 µM. In data set [1], the yeast surface expression is 0.498.

With chain 1 M105D G109F, in the data set with fluorescein, the dissociation constant Kd was at least 10 µM. Further, the yeast surface expression in data set [1] is 0.218.

Consider chain 1 M105V G109I, for which the Kd with fluorescein is at least 10 µM. The yeast surface expression in data set [1] came out at 0.203.

Take chain 1 M105V G109Y: in the data set with fluorescein, the Kd was at least 10 µM. Further, the yeast surface expression in data set [1] was 0.227.

Take chain 1 M34P V37T: in the data set with fluorescein, the Kd was at least 10 µM. For the same variant, in data set [1], the yeast surface expression is 0.323.

Regarding chain 1 M34P V37A, the Kd in the data set with fluorescein is at least 10 µM. Also, the yeast surface expression in data set [1] was 0.897.

chain 1 M34P V37L: the Kd with fluorescein was at least 10 µM. Moreover, the yeast surface expression in data set [1] came out at 1.01.

For the variant chain 1 M34P V37Q, the dissociation constant (Kd) with fluorescein stood at 2.23 µM. Further, the yeast surface expression in data set [1] came out at 2.03.

As to chain 1 M105W W108K, the Kd with fluorescein was 2.88 µM. For the same variant, in data set [1], the yeast surface expression came to 0.363.

For the variant chain 1 M105W W108V, the Kd with fluorescein was found to be 0.000454 µM. The yeast surface expression in data set [1] turned out to be 0.756.

As for chain 1 M34V W36N, the Kd with fluorescein was at least 10 µM. In data set [1], the yeast surface expression was 0.502.

As for chain 1 M105S D106N, the dissociation constant (Kd) with fluorescein was at least 10 µM. For the same variant, the yeast surface expression in data set [1] is 0.443.

In general, Kd refers to the constant that tells how readily two partners part at equilibrium.
